Patent US6642203B1, “Crustacean antimicrobial peptides” (Institut Francais de Recherche pour l'Exploitation de la Mer, priority 1997, dated 2003)

How the values were obtained:
Assay type in all cases: cell-based
Micrococcus luteus = test: Measurement of the bacteriostatic properties (CFU over time); settings: for colonies formed (cfu): 18 μM (8 times MIC)
Experimental: A midlogarithmic phase culture of Micrococcus luteus in the “Poor Broth” medium defined above was incubated at 30° C. in the presence of the peptide or (as control) of water. The final concentration of the molecules tested is 8 times higher than the MIC. 20-μl alquots are collected at various time intervals and cultured on nutrient agar plate. The number of colonies formed (CFU) is determined after 24 hours of incubation at 37° C.

Neurospora crassa = test: Antifungal activity, inhibition of growth in liquid phase
Experimental: (§1) The antifungal activity was determined against Neurospora crassa and Fusarium oxysporum by a test of inhibition of growth in liquid phase. 80 μl of fungal spores (final concentration: 10^4 spores/ml) are suspended in ½ Potato Dextrose Broth (DIFCO) supplemented with tetracycline (10 μg/ml) and cefotaxime (100 μg/ml). This suspension was added to 10 μl of the fraction to be tested in microtitre plates. The final volume is brought to 100 μl by addition of 10 μl of water. Growth inhibition can be observed under a microscope after 24 hours of incubation at 25° C. in the dark, and measured by the variation in the optical density at 600 nm after 48 hours.

Fusarium oxysporum = test: as above
Experimental: as §1

Escherichia coli D31 = test: Antibacterial assay, inhibition of growth in liquid phase (MIC); settings: Escherichia coli D31, 24 h at 30° C.
Experimental: The bacteria are cultured with a starting optical density A600=0.001 in “Poor-Broth” nutrient medium (1% bactotryptone, 0.5% NaCl w/v).
The fractions were tested by inhibition of growth in liquid phase.
10 μl aliquots of each fraction to be tested are incubated in microtitre plates with 100 μl of a suspension of bacteria at the midlogarithmic phase.
The bacterial growth is measured by determining the optical density A600 after an incubation of 24 hours at 30° C.
An identical procedure was used to determine the minimum inhibitory concentration (MIC) of the molecules on these bacterial strains. The MIC values correspond to an interval a-b of peptide concentrations, where a represents the highest concentration at which bacterial growth is observed, and b is the lowest concentration which causes 100% inhibition of growth.

B1: Penaeidin 3: antimicrobial peptide of 62 amino acids, about 6.6 kDa, from Penaeus vannamei haemolymph (protein, listed as Penaeus vannamei)
chain: EVYKGGYTRPIPRPPPFVRPLPGGPIGPYNGCPVSCRGISFSQARSCCSRLGRCCHVGKGYS
colonies formed (cfu) (Micrococcus luteus; incubation time 1 min): 4.30 10^4 cfu/ml | colonies formed (cfu) (Micrococcus luteus; incubation time 30 min): 4.45 10^4 cfu/ml | colonies formed (cfu) (Micrococcus luteus; incubation time 2 h): 3.15 10^4 cfu/ml | colonies formed (cfu) (Micrococcus luteus; incubation time 4 h): 4.60 10^4 cfu/ml | colonies formed (cfu) (Micrococcus luteus; incubation time 7 h): 4.50 10^4 cfu/ml | colonies formed (cfu) (Micrococcus luteus; incubation time 24 h): 5.60 10^4 cfu/ml | bacterial growth (Micrococcus luteus; 18 μM, after an incubation of 24 hours): no bacterial growth is observed | kind of antibacterial effect (Micrococcus luteus; 18 μM, number of colonies constant over sample collections): bacteriostatic effect | MIC (Neurospora crassa): > 5 µM | MIC (Fusarium oxysporum): > 5 µM | MIC (Escherichia coli D31): > 5 µM
